Patent US20220025032A1 (Novartis, published 2022)
Like-named read-outs stand apart in the source and are kept apart here.

How the values were obtained:
[1] = target: T1, Human VEGF165 (human, UniProt P15692 27-191); experiment: competition ELISA: antibody pre-incubated with 400 pM VEGF-biotin, added to coated VEGFR2, streptavidin-HRP detection; y axis OD
T1 construct: mature; biotinylated in the VEGFR2 ELISAs; also called human VEGF-A; VEGF-A
Description: (§1) The plates were then washed 3 times using 1λTBST. The plates were blocked in 2% BSA diluent (0.1% Tween 20/0.1% TirtonX100) overnight. After blocking, the plates were washed 3 times using TB ST and then the sample mixture was added at 20 μl/well. The sample mixture consisted a final fixed concentration of VEGF-biotin (in-house) at 400 pM and a 15 point 1:2 serial dilution of the antibody starting at 20 nM. The sample mixture was pre-incubated for 1 hour prior to adding to the plate and then incubated for another hour at room temperature on the plate. Afterwards, the plate was washed 3 times using TBST and 20 μl/well of Streptavidin-HRP diluted at 1:5000 was added for an incubation time of 1 hour. The plates were washed 3 times in TBST and then 20 μl/well of TMB substrate was added. TMB is a chromogen that yields a blue color when oxidized. TMB was incubated for 10 minutes until the signal saturated in the no antibody samples, and then 10 μl/well of 2N sulfuric acid was added which then changes the blue color to yellow and this now has a maximum absorbance at 450 nm.

[2] = target: T1, Human VEGF165; experiment: SPR Biacore T200, anti-Fab capture, antigen as analyte (cells shifted left after the merged BTC cell)
[3] = target: T2, Human BTC (human, UniProt P35070 32-111); experiment: sandwich ELISA: BTC coated, Fab titrated, detection with VEGF-biotin (bridging readout)
T2 construct: Soluble human BTC of the Biacore, ELISA, MSD and cell assays; also called human betacellulin; soluble human BTC
T2 sequence: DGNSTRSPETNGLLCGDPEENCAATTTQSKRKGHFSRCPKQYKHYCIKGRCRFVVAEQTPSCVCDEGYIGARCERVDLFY
Description: A sandwich enzyme linked immunosorbent assay (ELISA) was performed by coating either BTC or VEGF, then adding a titration of NVS11 followed by detection with the second target, either biotinylated BTC or biotinylated VEGF. […] Neither of the single Fabs, NVS1 or NVS8, could bind to both BTC and VEGF at the same time.

[4] = target: T3, Human BTC-avitag-biotin (human, UniProt P35070 32-111, biotin on the avitag); experiment: flow cytometry, BTC-ErbB4 Cell Binding Inhibition with HKB11 cells over-expressing human ErbB4
T3 construct: also called biotin-BTC; soluble human BTC-avitag-biotin
T3 sequence: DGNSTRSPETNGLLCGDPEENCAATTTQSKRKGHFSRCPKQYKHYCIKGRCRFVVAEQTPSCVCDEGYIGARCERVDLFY
Description: In order to assess potency of the Fabs and bispecific in neutralizing binding of BTC to its receptor Erb 1 or ErbB4, the following assay was performed. HKB11 over-expressing either ErbB1 or ErbB4 cells were plated 1×10⁵ cells/well. Cells were washed once with FACS buffer by spun down at 1200 rpm for 5 minutes and supernatant removed. Next, the Fab sample dilutions and BTC were prepared in FACS buffer. Human BTC-avitag-biotin was diluted to a fixed concentration of 15 nM. The test Fab samples were prepared at a starting concentration of 40 nM and titrated for 9 points at a serial dilution of 1:2. Both biotin-BTC and the test Fab samples are incubated for 30 minutes at room temperature. The pre-incubated samples were then added to the cell plate at 100 μl per well in duplicate and incubated for 1 hour on ice. […]
Measurements were performed on Attune Flow Cytometry machine. Data were analysed using the Flow Jo software. The live cell populations analysed were gated in forward and side scattering (FSC-A/SSC-A dot plot). The interval gate was established on the control histogram, which was obtained with sample incubated in streptavidin-Alexa Fluor488 only, and subsequently, determined percent of positive binding events of cells carrying membrane-bound receptor ErbB1 or ErbB4 and biotin-BTC. The median of fluorescence intensity (MFI) value was also derived for the live cell population. […]

[5] = target: T1, Human VEGF165; experiment: competition ELISA: antibody pre-incubated with 400 pM VEGF-biotin, added to coated VEGFR2, streptavidin-HRP detection; y axis OD; remark: listed apart in the source
Description: as §1

[6] = target: T1, Human VEGF165; experiment: as above; remark: listed apart in the source
Description: as §1

[7] = target: T1, Human VEGF165; experiment: competition ELISA: antibody pre-incubated with biotinylated human VEGF, added to coated human VEGFR2-Fc, streptavidin-HRP detection; blocked partner VEGFR2-Fc
Description: NVS11 neutralization of VEGF was determined by ELISA. Various concentrations of NVS11 was pre-incubated with biotinylated human VEGF and added to VEGFR2-Fc coated plates.

[8] = target: T4, membrane-bound human BTC on 293F-hBTC cells (human, UniProt P35070 32-111); experiment: flow cytometry on 293F cells with membrane-bound human BTC, anti-human Fab detection
T4 construct: the transfected construct is not described; also called membrane-anchored BTC
T4 sequence: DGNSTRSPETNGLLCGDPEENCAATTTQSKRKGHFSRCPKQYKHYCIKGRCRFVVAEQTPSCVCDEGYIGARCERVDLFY
Description: After washing the cells, the cells were dissociated using Versene at 37° C. The cells were washed with FACS buffer and plated at 100 μl in a 96 well plate using cells at 1×10⁶ cells/ml. Then 100 μl of a serial dilution of antibodies starting at 50 nM was used. The cells were incubated, washed and then treated with the secondary anti-human Fab-FITC antibody. The antibodies only bound to the cells expressing BTC. After which the cells were washed and analyzed on the Attune Flow Cytometry. All data analysis was carried out using Flow Jo software.

T1 sequence (P15692 other isoform, or with tags, fused parts or gaps): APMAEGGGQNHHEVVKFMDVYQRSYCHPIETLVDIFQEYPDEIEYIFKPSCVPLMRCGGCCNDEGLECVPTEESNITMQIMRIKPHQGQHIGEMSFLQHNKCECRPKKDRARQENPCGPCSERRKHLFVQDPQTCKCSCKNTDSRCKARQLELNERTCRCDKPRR

B1: NVS8 (Fab, V domains shown)
VH: EVQLVESGGGLVQPGGSLRLSCTASGFSLTDYYYMTWVRQAPGKGLEWVGFIDPDDDPYYATWAKGRFTISRDNSKNTLYLQMNSLRAEDTAVYYCAGGDHNSGWGLDIWGQGTLVTVSS
VL: EIVMTQSPSTLSASVGDRVIITCQASEIIHSWLAWYQQKPGKAPKLLIYLASTLASGVPSRFSGSGSGAEFTLTISSLQPDDFATYYCQNVYLASTNGANFGQGTKLTVLK
notes: Fab version of the anti-VEGF 1008 scFv; also called anti-VEGF Fab
For B1, the IC50 [1] was 1.35 nM, the Kd [2] was 3 pM and the binding result [3] was “no binding (tested: about 10-20 nM (last marker hidden))”. The binding result [4] was “no binding (tested: about 25 nM)”, the IC50 [5] was 0.737 nM and the IC50 [6] was 1.35 nM. For the same binder, the “IC50 (read off the curve)” value [7] was ~700 pM and the binding result [8] was “no binding (tested: about 25 nM)”.
